{"source": "paper PMC2193935", "about": "(The Journal of Experimental Medicine, 2002)", "proteins": {"B1": {"name": "Epo-Fc/IHH (Epo-Fc with three inactivating point mutations in the FcRn-binding site of the Fc domain) (Fc fusion)", "chain": "APPRLICDSRVLERYILEAKEAENVTMGCAEGPRLSENITVPDTKVNFYAWKRMEVEEQAIEVWQGLSLLSEAILQAQALLANSSQPPETLQLHIDKAISGLRSLTSLLRVLGAQKELMSPPDTTPPAPLRTLTVDTFCKLFRVYANFLRGKLKLYTGEVCRRGDRGGSGGSVPRDCGCKPCICTVPEVSSVFIFPPKPKDVLTATLTPKVTCVVVDISKDDPEVQFSWFVDDVEVHTAQTQPREEQFNSTFRSVSELPIMAQDWLNGKEFKCRVNSAAFPAPIEKTISKTKGRPKAPQVYTIPPPKEQMAKDKVSLTCMITDFFPEDITVEWQWNGQPAENYKNTQPIMNTNGSYFVYSKLNVQKSNWEAGNTFTCSVLHEGLHNAHTEKSLSHSPGK", "modifications": "glycosylated (oligosaccharides cleaved by PNGase F)"}}, "target": "the molecule itself", "test": "SDS-PAGE under non-reducing and reducing conditions with Western blot"}
{"protein": "B1", "values": [{"measurement": "stoichiometry N", "value": 2}]}
